Experimental findings from article PMC7018950 are described below.

By koff is commonly meant the first-order rate constant of dissociation. The term kon denotes the rate constant with which the complex forms.

Test [1] deals with His6-tagged snapdragon CHS (Antirrhinum majus (snapdragon)) (UniProt P06515).
Test [2] shares this target. As to the kind of experiment: cross-linking; His6-AmCHIL 10 µM and His6-AmCHS 5 µM with 4 mM BS3 at pH 7.5 for 5 min; SDS-PAGE and immunoblot; band of 70 kDa. (Immunoblotting shows a protein as a band on a membrane.)
For test [3], the target named is PpCHS (GAL4 two-hybrid fusion) (Physcomitrella patens).
Test [4] deals with His6-tagged CHS of ginkgo (Ginkgo biloba). As to the kind of experiment: BLI; BLItz; His6-tagged CHS immobilised on anti-His6 sensors, GST-tagged CHIL loaded; 100 mM HEPES-NaOH pH 7.5; 1:1 binding model; apparent KD. In general terms: Biolayer interferometry detects binding as a change in optical thickness at a sensor tip.
Test [5] addresses His6-tagged Ginkgo biloba chalcone synthase (GbCHS) (Ginkgo biloba). As to the kind of experiment: BLI; BLItz; His6-tagged CHS immobilised on anti-His6 sensors, GST-tagged CHIL loaded (30-150 s), wash (150-270 s); 100 mM HEPES-NaOH, pH 7.5; 1:1 binding model; apparent KD.
Test [6] has as its target His6-tagged Hydrangea macrophylla chalcone synthase (HmCHS) (Hydrangea macrophylla) (UniProt O82144). Described as above.
In test [7] the target is His6-tagged Physcomitrella patens chalcone synthase (PpCHS) (Physcomitrella patens). The test is described as above.
Test [8] concerns the target His6-tagged Selaginella moellendorffii chalcone synthase (SmCHS) (Selaginella moellendorffii). Described as above.
The target in test [9] is His6-tagged morning glory chalcone synthase D (InCHS-D) (Ipomoea nil) (UniProt O22045). The test is described as above.
Test [10] deals with His6-tagged rice chalcone synthase 1 (OsCHS-1) (Oryza sativa) (UniProt Q2R3A1). Described as above.
For test [11], the target named is His6-tagged snapdragon chalcone synthase (His6-AmCHS) (Antirrhinum majus) (UniProt P06515). The test is described as above.
Test [12] concerns the target His6-tagged soybean chalcone synthase isozyme 7 (GmCHS-7) (Glycine max) (UniProt P30081). The test is described as above.
Test [13] has as its target His6-tagged soybean chalcone synthase isozyme 1 (GmCHS-1) (Glycine max) (UniProt P24826). The description is as above.

Chain of His6-tagged soybean chalcone synthase isozyme 1 (GmCHS-1) (Glycine max) (P24826 whole entry): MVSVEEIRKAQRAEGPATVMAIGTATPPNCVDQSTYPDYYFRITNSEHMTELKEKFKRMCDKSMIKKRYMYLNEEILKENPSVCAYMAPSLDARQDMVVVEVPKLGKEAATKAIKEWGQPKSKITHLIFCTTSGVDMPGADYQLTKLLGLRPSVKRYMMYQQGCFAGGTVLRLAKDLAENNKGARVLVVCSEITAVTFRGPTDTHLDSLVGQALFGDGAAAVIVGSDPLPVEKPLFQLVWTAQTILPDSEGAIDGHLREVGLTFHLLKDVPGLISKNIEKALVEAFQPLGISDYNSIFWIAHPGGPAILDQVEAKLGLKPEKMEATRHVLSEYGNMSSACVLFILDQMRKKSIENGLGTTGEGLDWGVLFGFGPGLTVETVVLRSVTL
Chain of His6-tagged morning glory chalcone synthase D (InCHS-D) (Ipomoea nil) (O22045 whole entry): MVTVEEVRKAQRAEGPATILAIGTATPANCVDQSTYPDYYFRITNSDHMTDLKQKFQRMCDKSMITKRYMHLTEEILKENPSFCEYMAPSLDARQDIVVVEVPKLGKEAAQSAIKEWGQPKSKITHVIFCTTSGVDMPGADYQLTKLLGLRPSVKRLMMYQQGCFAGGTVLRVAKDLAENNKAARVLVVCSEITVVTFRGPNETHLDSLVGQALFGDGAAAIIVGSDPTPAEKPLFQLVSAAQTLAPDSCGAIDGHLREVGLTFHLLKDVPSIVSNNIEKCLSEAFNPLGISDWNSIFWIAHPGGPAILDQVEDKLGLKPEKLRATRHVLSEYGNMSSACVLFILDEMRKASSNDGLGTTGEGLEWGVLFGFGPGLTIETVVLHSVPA
Chain of His6-tagged Physcomitrella patens chalcone synthase (PpCHS) (Physcomitrella patens) (Q2VAZ3 entry or part of it): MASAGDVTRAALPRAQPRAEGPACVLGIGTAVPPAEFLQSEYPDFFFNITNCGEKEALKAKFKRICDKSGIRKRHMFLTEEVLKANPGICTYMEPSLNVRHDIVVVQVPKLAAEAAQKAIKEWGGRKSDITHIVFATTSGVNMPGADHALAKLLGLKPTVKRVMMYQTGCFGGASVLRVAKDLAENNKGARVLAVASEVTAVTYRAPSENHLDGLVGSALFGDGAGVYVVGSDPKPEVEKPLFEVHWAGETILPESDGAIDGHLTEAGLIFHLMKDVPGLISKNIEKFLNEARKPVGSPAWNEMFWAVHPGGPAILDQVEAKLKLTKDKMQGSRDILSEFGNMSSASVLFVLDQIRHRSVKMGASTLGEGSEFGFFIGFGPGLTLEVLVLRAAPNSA
Chain of His6-tagged snapdragon CHS (Antirrhinum majus (snapdragon)) (P06515 whole entry): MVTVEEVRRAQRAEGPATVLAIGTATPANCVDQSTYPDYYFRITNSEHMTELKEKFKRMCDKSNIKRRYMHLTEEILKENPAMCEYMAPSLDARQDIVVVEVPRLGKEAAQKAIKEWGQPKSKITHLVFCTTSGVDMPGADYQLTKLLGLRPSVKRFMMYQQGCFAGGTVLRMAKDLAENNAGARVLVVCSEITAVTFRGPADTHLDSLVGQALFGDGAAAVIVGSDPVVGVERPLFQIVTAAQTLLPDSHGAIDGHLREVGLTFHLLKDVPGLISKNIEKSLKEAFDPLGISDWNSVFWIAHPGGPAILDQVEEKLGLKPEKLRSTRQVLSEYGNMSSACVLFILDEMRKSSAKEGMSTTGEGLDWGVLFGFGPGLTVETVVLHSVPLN
Chain of His6-tagged snapdragon chalcone synthase (His6-AmCHS) (Antirrhinum majus) (P06515 whole entry): as above
Chain of His6-tagged rice chalcone synthase 1 (OsCHS-1) (Oryza sativa) (Q2R3A1 whole entry): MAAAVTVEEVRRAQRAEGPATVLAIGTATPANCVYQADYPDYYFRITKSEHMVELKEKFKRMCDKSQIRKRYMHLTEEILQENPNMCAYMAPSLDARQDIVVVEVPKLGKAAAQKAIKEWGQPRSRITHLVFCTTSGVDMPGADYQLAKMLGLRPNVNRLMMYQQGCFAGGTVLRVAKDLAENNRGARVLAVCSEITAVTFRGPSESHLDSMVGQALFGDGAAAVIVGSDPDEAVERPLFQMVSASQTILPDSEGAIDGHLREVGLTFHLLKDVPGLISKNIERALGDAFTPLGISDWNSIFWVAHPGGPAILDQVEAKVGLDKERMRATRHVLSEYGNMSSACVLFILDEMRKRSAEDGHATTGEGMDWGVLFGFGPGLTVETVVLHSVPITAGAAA
Chain of His6-tagged Hydrangea macrophylla chalcone synthase (HmCHS) (Hydrangea macrophylla) (O82144 whole entry): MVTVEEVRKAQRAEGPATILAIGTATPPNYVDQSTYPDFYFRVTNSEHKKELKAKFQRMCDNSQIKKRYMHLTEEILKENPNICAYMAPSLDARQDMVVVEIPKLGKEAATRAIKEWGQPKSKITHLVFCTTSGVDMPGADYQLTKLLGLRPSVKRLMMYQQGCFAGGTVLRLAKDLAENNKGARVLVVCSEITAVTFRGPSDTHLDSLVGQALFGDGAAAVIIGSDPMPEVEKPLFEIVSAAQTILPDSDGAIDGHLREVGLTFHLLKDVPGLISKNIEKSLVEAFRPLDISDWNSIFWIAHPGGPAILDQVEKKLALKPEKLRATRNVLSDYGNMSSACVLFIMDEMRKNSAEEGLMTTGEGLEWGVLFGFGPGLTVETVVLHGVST
Chain of His6-tagged soybean chalcone synthase isozyme 7 (GmCHS-7) (Glycine max) (P30081 whole entry): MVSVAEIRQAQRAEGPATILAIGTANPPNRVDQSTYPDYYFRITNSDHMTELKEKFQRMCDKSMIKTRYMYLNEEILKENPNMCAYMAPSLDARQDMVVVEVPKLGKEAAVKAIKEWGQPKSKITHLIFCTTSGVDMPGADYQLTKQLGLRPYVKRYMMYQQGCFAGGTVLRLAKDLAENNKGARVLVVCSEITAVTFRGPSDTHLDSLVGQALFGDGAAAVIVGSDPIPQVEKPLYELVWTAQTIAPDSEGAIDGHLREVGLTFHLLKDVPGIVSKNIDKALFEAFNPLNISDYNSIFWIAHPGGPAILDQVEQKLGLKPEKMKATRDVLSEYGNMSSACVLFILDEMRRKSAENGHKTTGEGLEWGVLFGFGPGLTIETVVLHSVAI

For the substance “His6-tagged snapdragon CHIL (natural protein)”, in test [1], the E value (chalconoid excess over CTAL) of the reaction catalysed by 0.1 µM AmCHS in the presence of 1 µM CHIL (+18% without CHIL) was found to be 80%; the amount of THC and naringenin (chalconoids) formed by 0.1 µM AmCHS with 1.0 µM AmCHIL against without, with a substantial decrease in CTAL formation was 1.7 fold. For the same substance, the stoichiometry N (CHIL monomer per CHS monomer) in test [2] amounted to 1.
On to “PpCHIL (GAL4 two-hybrid fusion) (natural protein)”, for which the E value (chalconoid excess over CTAL) of the reaction catalysed by 0.1 µM PpCHS in the presence of 1 µM CHIL (−67% without CHIL); purified recombinant proteins in test [3] came to 90%.
As to “glutathione S-transferase-tagged CHIL of ginkgo (natural protein)”, the Kd in test [4] came to 126 nM.
On to “glutathione S-transferase-tagged Ginkgo biloba chalcone isomerase-like protein (GbCHIL) (natural protein)”, for which, in test [5], the koff turned out to be 0.000154 s⁻¹ and the on-rate (kon) amounted to 20200 M⁻¹ s⁻¹.
On to “glutathione S-transferase-tagged Hydrangea macrophylla chalcone isomerase-like protein (HmCHIL) (natural protein)”, for which, in [6], the Kd is 24.1 nM, the koff stood at 0.00277 s⁻¹ and the kon was found to be 115000 M⁻¹ s⁻¹.
For the substance “glutathione S-transferase-tagged Physcomitrella patens chalcone isomerase-like protein A (PpCHIL-A) (natural protein)”, in [7], the Kd came to 2.69 nM, the koff amounted to 0.000319 s⁻¹ and the kon was found to be 118000 M⁻¹ s⁻¹.
With “glutathione S-transferase-tagged Selaginella moellendorffii chalcone isomerase-like protein (SmCHIL) (natural protein)”, in test [8], the Kd was 56.6 nM, the koff came out at 0.000674 s⁻¹ and the kon came to 11900 M⁻¹ s⁻¹.
Regarding “glutathione S-transferase-tagged morning glory chalcone isomerase-like protein (InCHIL) (natural protein)”, in test [9], the Kd was found to be 1.05 nM, the koff was 0.000206 s⁻¹ and the kon was 196000 M⁻¹ s⁻¹.
On to “glutathione S-transferase-tagged rice chalcone isomerase-like protein A (OsCHIL-A) (natural protein)”, for which, in [10], the Kd turned out to be 64.4 nM, the koff came out at 0.000672 s⁻¹ and the kon was found to be 10400 M⁻¹ s⁻¹.
In the case of “glutathione S-transferase-tagged snapdragon chalcone isomerase-like protein (AmCHIL) (natural protein)”, in test [11], the Kd turned out to be 62.6 nM, the koff was 0.00183 s⁻¹ and the kon came out at 29300 M⁻¹ s⁻¹.
Consider “glutathione S-transferase-tagged soybean chalcone isomerase-like protein (GmCHIL) (natural protein)”, for which, in test [12], the Kd was determined as 19.3 nM, the koff came out at 0.00113 s⁻¹ and the kon was 58300 M⁻¹ s⁻¹. For the same substance, in test [13], the Kd turned out to be 7.46 nM, the koff came to 0.000381 s⁻¹ and the kon turned out to be 51000 M⁻¹ s⁻¹.
